What all share (settings): remark: other sources report otherwise
One test addresses HLA-A*02:01 (human). Briefly: REVEAL MHC-peptide binding assay, recombinant HLA.
Another test has as its target HLA-A*03:01 (human). Briefly: REVEAL MHC-peptide binding assay, recombinant HLA.
Test [1] deals with HLA-A*02:01 (recombinant MHC class I molecule) (human). Briefly: REVEAL MHC-peptide binding assay, recombinant MHC, score normalised to positive control = 100.
The target in test [2] is HLA-A*03:01 (recombinant MHC class I molecule) (human). The test is described as above.
Test [3] deals with HLA-B*08:01 (recombinant MHC class I molecule) (human). Briefly: REVEAL MHC-peptide binding assay, stabilisation of ternary complex with recombinant MHC.
In test [4] the target is HLA-A*11:01 (recombinant MHC class I molecule) (human). The test is described as above.

Regarding WVKRGSKKL, the results for the In Vitro Score (% of positive control peptide) with HLA-A*02:01 (human) and in the test with HLA-A*03:01 (human) were 3 and 1.9, respectively.
As for VAFIIFWVR [Synthetic peptide … (K28R)], the In Vitro Score (% of positive control peptide) amounted to 1.2 in test [1] and 0.7 in test [2].
On to IIFWVKRGL, for which the In Vitro Score (% of positive control peptide) in the test with HLA-A*02:01 (human) came out at 82.2; with HLA-A*03:01 (human), 15.9.
Turning to VAFIIFWVR [… synthetic peptide K28R (SEQ ID NO: 100)], the In Vitro Score (% of positive control peptide) in test [3] was 0.1; in test [4] it was 34.6.
As to IFWVKRGLK, the In Vitro Score (% of positive control peptide) in the test with HLA-A*02:01 (human) turned out to be 2.4; with HLA-A*03:01 (human), 26.9.
The corresponding values for IFWVKRGSK are 2.4 and 10.4.

The record behind these values is US20200297760A1, “COMPOSITIONS AND METHODS FOR REDUCING IMMUNE RESPONSES AGAINST CHIMERIC ANTIGEN RECEPTORS” (Juno Therapeutics, Inc., priority 2015, published 2020).
